Measured values from patent US20090036368A1, “Therapeutic Combination” (HAMLET PHARMA AB, priority 2005, published 2009).

How the values were obtained:
Jurkat cells [1] = experiment: subG1 population / DNA fragmentation by flow cytometry after PI staining; format: cell-based; details: for DNA fragmentation (sub G0/G1), substance alone: TSA 100 ng/ml or SAHA 2.5 μM
Description: Cell Cycle Analysis by cytometry—Cells were harvested, washed with PBS and then fixed in suspension in 75% cold ethanol at 4° C. for 2 hours at least. The samples were then centrifuged, washed with PBS, and treated with 0.25% triton X-100 for 10 minutes at room temperature. The cells were washed again, resuspended in 2.5 μg/ml of PI and 250 μg/ml Rnase A in PBS, and incubated at 4° C. overnight prior to measurement. Cellular fluorescence was measured using the Facscalibur flow cytometry (Becton Dickinson, San Jose, Calif.). The simple-cell populations were determinated on the basis of their fluorescence-intensity values FL2-A and FL2-W.
The effects of HAMLET on DNA fragmentation were compared between untreated cells and those pre-treated with TSA to increase acetylation. Sub G0/G1 DNA fragmentation was quantified by flow cytometry using the methodology as described in Example 1.
(§1) Cells in medium were used as controls.

A459 cells = experiment: subG1 DNA fragmentation by flow cytometry in A459 cells; format: cell-based; details: TSA 100 ng/ml overnight, then HAMLET 30 μM one hour; data not shown
Description: In addition, non confluent A459 cells were treated with or without TSA 100 ng/ml overnight. Then HAMLET was added for one hour at 30 μM. As before, DNA fragmentation was followed both by flow cytometry. Following PI staining (cf. Materials and methods), subG1 populations were quantified and presented as percent of the total population.

[2] = tested on: acetyl histone H4 in Jurkat cells; experiment: acetyl histone H4 by flow cytometry; format: cell-based; details: for histone acetylation (Example 5): TSA 3 hours or 18 h, HAMLET 3 h, total population
Description: Acetyl histone H4 and Cell Cycle Analysis by cytometry—Cells were harvested, washed with PBS and then fixed in suspension in 75% cold ethanol at 4° C. for 2 hours at least. The samples were then centrifuged, washed with PBS, and treated with 0.25% triton X-100 for 10 minutes at room temperature. After addition of 3 ml of PBS and centrifugation, the cells were incubated for at least 30 min in swine serum 1% (DAKO, Solna, Sweden) in PBS. After addition of 3 ml of PBS and centrifugation, the cells were incubated for 3 hours at room temperature in the presence of rabbit polyclonal anti-body to human acetyl Histone H4 (Upstate), diluted 1/500 containing 1% BSA. Cells were then washed and incubated with a FITC-conjugated swine anti-rabbit antibody (DAKO, Solna, Sweden) diluted 1/20 in PBS containing 1% BSA for 2 h. The cells were washed again, resuspended in 2.5 μg/ml of PI and 250 μg/ml Rnase A in PBS, and incubated at 4° C. overnight prior to measurement. The control was prepared identically as described above, except the presence of the histone antibody. Cellular fluorescence was measured using the Facscalibur flow cytometry (Becton Dickinson, San Jose, Calif.). The simple-cell populations were determined on the basis of their fluorescence-intensity values FL2-A and FL2-W. Then red and green emissions from each cell were separated and quantified using the standard optics of the cytometer.
The level of chromatin acetylation in Jurkat cells was quantified by flow cytometry, using specific antibodies to acetylated histone H4 (FIG. 1). To increase acetylation, the cells were treated with the HDAC inhibitor TSA (FIG. 1C, FIG. 1E line 3).
The inhibition of HDAC causes an accumulation of acetylated histones. The level of acetyl histone H4 in Jurkat cells was quantified by flow cytometry after staining with specific antibodies. The cells were counterstained with propidium iodide to visualize the change in chromatin levels. Results are presented as density plot diagrams representing the DNA content on the Y-axis between four populations of cells (Sub1, G1, S, and G2), and the degree of acetylation of Histone H4 on the X-axis.

[3] = viability by trypan blue exclusion (Vi-Cell XR); details: human, Jurkat cells
Description: (§2) Jurkat cells were first pretreated with or without TSA 100 ng/ml during 3 or 18H and then treated by HAMLET during 3H. Viability was assessed by trypan blue exclusion using the Vi-Cell XR apparatus.
(§3) To examine if HDAC inhibitors might influence the effects of HAMLET on the viability of tumour cells, Jurkat cells were pretreated with HDAC inhibitors TSA 3 hours or 18 h and then exposed to HAMLET (FIG. 5). The cellular response to the combined treatment was compared to the response to TSA alone (3 h or 18 h) and to HAMLET (3 h). Cells in medium were used as controls. The cellular response was quantified by flow cytometry and the subG1 population was used as a measure of chromatin fragmentation and cell death (FIGS. 5 and 6A). In parallel, cell viability was assessed by ATP levels (FIG. 6B) and trypan blue exclusion (FIG. 6C).

[4] = tested on: HeLa cells expressing GFP-tagged Histone H4; experiment: acetyl histone H4 and nuclear morphology by confocal microscopy; format: cell-based; details: TSA 100 ng/ml; vs control cells
Description: Acetyl histone H4 by confocal microscopy—Hela Cells were grown in Lab-Tek Chamber slides. Cells were washed twice in PBS, and then fixed 10 minutes in PBS formaldehyde 4%. The samples were then centrifuged, washed with PBS, and treated with 0.1% triton X-100 for 2 minutes at room temperature. After washes, cells were incubated for at least 30 min in swine serum 1% (DAKO, Solna, Sweden) in PBS. Then cells were incubated for 3 hours at room temperature in the presence of rabbit polyclonal antibody to human acetyl Histone H4 (Upstate), diluted 1/500 containing 1% BSA. Cells were then washed and incubated with an Alexa633-conjugated goat anti-rabbit antibody (Invitrogen) diluted 1/200 in PBS containing 1% BSA for 2 h. The cells were washed 3×5 min. in PBS prior to evaluation in an LSM 510 META confocal microscope (Carl Zeiss, Germany) with a 63× objective. The frequency of each chromatin patterns is shown in fold of control cells staining after counting a minimum of 30 cells in each experiment.
The effect of HAMLET and TSA on the acetylation of Histone H4 was further examined by confocal microscopy of adherent HeLa cells expressing GFP-tagged Histone H4. […] The acetylation level of histone H4 in the control cells was very weak (FIG. 9A).

[5] = tested on: tailless histones and DNA; experiment: nucleosome assembly from tailless histones and DNA; format: biochemical, Drosophila melanogaster; details: radiolabelled 146 bp DNA fragments, gel
Description: FIG. 4. Effects of HAMLET on a mixture of tailless histones and DNA. HAMLET was added to a mixture of radiolabelled 146 bp DNA fragments and tailless histones. In the absence of HAMLET, no nucleosomes are formed (lane 1). […] Nucleosome assembly on the 146 bp fragment results in one single nucleosome species, designated N. At higher concentrations of HAMLET, more nucleosomes were formed and HAMLET associated with them to form a second band in the gel. HAMLET also dissolved the unspecific histone-DNA aggregated seen in the wells.
Histones—Native, folded histones were obtained from duck erythrocyte nuclei. Native or tailless Drosophila melanogaster histones were expressed in E. coli, purified and assembled into octamers. The fold and functional integrity of the histones were confirmed by nucleosome assembly on DNA.
Chromatin assembly—To generate nucleosomes, histone octamers (recombinant or purified from cells) were assembled on linear DNA according to the “salt jump” method (Stein, 1979). ^32P-labeled 256 bp fragments and carrier DNA (supercoiled plasmid DNA, final DNA concentration 200 μg/ml) were mixed with histones (histone:DNA weight ratio 0.4-0.6) in 2 M NaCl, 10 mM Tris-HCl (pH 7.5). The mixture was incubated for 10 min at 37° C., diluted to 0.5 M NaCl, incubated at the same temperature for 30 min, and dialyzed at 4° C. against 10 mM Tris-HCl (pH 7.5) and 1 mM EDTA for 2 h. […]

Jurkat cells [6] = experiment: viability by trypan blue exclusion (Vi-Cell XR); details: HAMLET 3 h, in comparison with control
Description: as §2, §3

Jurkat cells [7] = experiment: cell viability by ATP levels; format: cell-based; details: 3 h exposure, vs control cells
Description: ATP monitoring reagent (AMR) was purchased from Cambrex (Wokingham, U.K.) in the form of a ViaLight™ HS kit and was reconstituted according to the manufacturers guidelines.
as §1

[8] = biological activity of α-lactalbumin mutants in apo-conformation; details: mutant proteins stable in apo-conformation at physiologic temperatures, without cofactor
[9] = bovine α-lactalbumin mutants, Permyakov et al. 2001; cited from earlier work

Row | Molecule | DNA fragmentation (sub G0/G1), substance alone (Jurkat cells [1]; HAMLET 1 hour) | histone acetylation (Example 5) [2] | acetylation of Histone H4 [4] | intensity of the GFP (histone H4) staining [4] | size of the nuclei [4] | biological activity [8] | calcium binding [9] | also measured
1 | O=C(CCCCCCC(=O)Nc1ccccc1)NO [SAHA, suberoylanilide hydroxamic acid] | did not trigger DNA fragmentation | – | – | – | – | – | – | –
2 | CC(/C=C/C(=O)NO)=C\[C@@H](C)C(=O)c1ccc(N(C)C)cc1 [TSA, Trichostatin A] | did not stimulate DNA fragmentation | time dependent increase in histone acetylation | increase in the staining of the acetylation of histone H4 | slight increase | slight increase in the size of the nuclei | – | – | cell death (subG1) (A459 cells): significantly increased cell death; time of maximal effect on acetylation ([2]; TSA treatment): two hours; acetylation of histone H4, increase vs control ([2]; increased concentration of TSA without HAMLET, intact cells (subG1 removed)): 2 fold; cytotoxicity at 18 h, 100 ng/ml [3]: 24.9%; subG1 population (Jurkat cells [1]; TSA alone, 18 h): 26.13%; HAMLET-induced DNA fragmentation after HDAC inhibitor pre-treatment (Jurkat cells [1]; pre-treated with TSA 100 ng/ml or SAHA 2.5 μM for 2 hours, HAMLET 1 hour): enhanced HAMLET-induced DNA fragmentation
3 | HAMLET (protein, UniProt P00709 20-142, looked up, complex with oleic acid) Alpha-lactalbumin: KQFTKCELSQLLKDIDGYGGIALPELICTMFHTSGYDTQAIVENNESTEYGLFQISNKLWCKSSQVPQSRNICDISCDKFLDDDITDDIMCAKKILDIKGIDYWLAHKALCTEKLEQWLCEKL | induce DNA fragmentation | did not change the degree of acetylation | increase in the acetylation of Histone H4 | increase of the intensity of the GFP staining | marked decrease in the size of the nuclei | – | – | effect on mixture of tailless histones and 146 bp DNA [5]: assembly of nucleosomes; histone H4 acetylation (Example 1) ([2]; low concentrations of HAMLET 1H, TSA 100 ng/ml 2H, vs medium control): decrease in histone H4 acetylation; loss of viability by trypan blue exclusion (Jurkat cells [6]): 19.7%; subG1 population (Jurkat cells [1]; HAMLET alone, 3 h): 14.58%; decrease in ATP levels (Jurkat cells [7]; HAMLET 0.1 mg/ml): 9.2%; decrease in ATP levels (Jurkat cells [7]; HAMLET 0.2 mg/ml): 41.17%; decrease in ATP levels (Jurkat cells [7]; HAMLET 0.3 mg/ml): 85.71%
4 | D87A: bovine α-lactalbumin mutant, aspartic acid at position 87 replaced by alanine (protein, UniProt P00711 20-142, looked up, variant D87A) Alpha-lactalbumin: EQLTKCEVFRELKDLKGYGGVSLPEWVCTTFHTSGYDTQAIVQNNDSTEYGLFQINNKIWCKDDQNPHSSNICNISCDKFLDDDLTADIMCVKKILDKVGINYWLAHKALCSEKLDQWLCEKL | – | – | – | – | – | biologically inactive | totally abolish calcium binding | –
5 | D87N: bovine α-lactalbumin mutant, aspartic acid at position 87 replaced by asparagine (protein, UniProt P00711 20-142, looked up, variant D87N) Alpha-lactalbumin: EQLTKCEVFRELKDLKGYGGVSLPEWVCTTFHTSGYDTQAIVQNNDSTEYGLFQINNKIWCKDDQNPHSSNICNISCDKFLDDDLTNDIMCVKKILDKVGINYWLAHKALCSEKLDQWLCEKL | – | – | – | – | – | biologically inactive | still bound calcium but with lower affinity | –
